Experimental data: paper PMC6915754, “Protein components of ribonucleoprotein granules from Drosophila germ cells oligomerize and show distinct spatial organization during germline development” (Scientific Reports, 2019)

Tests used:
[1] = molecular target: the molecule itself; assay: native gel or EMSA; blue native PAGE (BN-PAGE), NativePAGE 3-12% Bis-Tris gels, of Aub purified by anti-c-Myc immunoaffinity, several concentrations; western blot with anti-Flag antibody
[2] = molecular target: T1, GFP-Aub (functional and methylated, from fly ovaries) (Drosophila, UniProt O76922 1-866, methylated (sDMAs), positions not given); assay: pull-down; GFP-Aub from fly ovaries held on anti-GFP agarose beads; partially purified His-SUMO Tud domains added; 50 µl reactions, 4 °C, 30 min, binding buffer PBS + 0.05% IGEPAL CA-630; 4 washes; bound domains detected by anti-His-tag western blot; settings: both partners purified
T1 construct: Aubergine (Aub), Piwi family protein, Drosophila; full-length; also called full-length Aub; source: purified from fly ovaries with anti-GFP beads
T1 sequence (looked up): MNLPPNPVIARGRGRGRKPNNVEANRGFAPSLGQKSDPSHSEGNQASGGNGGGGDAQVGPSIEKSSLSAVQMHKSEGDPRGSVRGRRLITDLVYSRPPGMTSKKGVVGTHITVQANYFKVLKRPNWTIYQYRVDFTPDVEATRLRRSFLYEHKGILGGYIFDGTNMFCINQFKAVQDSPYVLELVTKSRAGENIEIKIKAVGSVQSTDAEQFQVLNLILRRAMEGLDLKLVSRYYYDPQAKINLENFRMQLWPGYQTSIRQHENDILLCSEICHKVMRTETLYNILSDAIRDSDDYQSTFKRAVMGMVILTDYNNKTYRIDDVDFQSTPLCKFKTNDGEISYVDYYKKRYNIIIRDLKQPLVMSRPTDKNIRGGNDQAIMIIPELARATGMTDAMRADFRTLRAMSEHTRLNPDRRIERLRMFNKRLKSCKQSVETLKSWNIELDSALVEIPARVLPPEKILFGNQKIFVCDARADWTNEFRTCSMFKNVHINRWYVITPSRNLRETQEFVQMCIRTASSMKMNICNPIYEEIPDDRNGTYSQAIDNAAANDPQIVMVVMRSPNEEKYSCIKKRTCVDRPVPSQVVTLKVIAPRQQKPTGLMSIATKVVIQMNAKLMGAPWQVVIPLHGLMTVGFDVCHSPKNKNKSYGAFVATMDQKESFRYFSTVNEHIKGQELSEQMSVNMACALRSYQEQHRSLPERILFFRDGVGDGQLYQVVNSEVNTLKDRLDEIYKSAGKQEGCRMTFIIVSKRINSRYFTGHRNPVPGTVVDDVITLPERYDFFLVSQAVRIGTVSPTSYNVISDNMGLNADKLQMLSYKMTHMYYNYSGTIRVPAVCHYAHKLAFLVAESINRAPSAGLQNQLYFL

Binder | binding result [1] | binding result [2]
methylated Aubergine (sDMA-Aub) (natural protein, Drosophila, UniProt O76922 1-866, looked up, symmetrically dimethylated arginines (sDMAs), positions not given, Aubergine (Aub), Piwi family protein, Drosophila; full-length; monomer ~100 kDa; Oligomers migrate at 500-700 kDa; also called sDMA-containing Aub; source: Sf9 or TriEx Sf9 cells, baculovirus, co-expressed with Dart5(Csul) and Vls; for SEC also Ni-NTA); not shown: 3xFLAG, N-terminal, kept) MNLPPNPVIARGRGRGRKPNNVEANRGFAPSLGQKSDPSHSEGNQASGGNGGGGDAQVGPSIEKSSLSAVQMHKSEGDPRGSVRGRRLITDLVYSRPPGMTSKKGVVGTHITVQANYFKVLKRPNWTIYQYRVDFTPDVEATRLRRSFLYEHKGILGGYIFDGTNMFCINQFKAVQDSPYVLELVTKSRAGENIEIKIKAVGSVQSTDAEQFQVLNLILRRAMEGLDLKLVSRYYYDPQAKINLENFRMQLWPGYQTSIRQHENDILLCSEICHKVMRTETLYNILSDAIRDSDDYQSTFKRAVMGMVILTDYNNKTYRIDDVDFQSTPLCKFKTNDGEISYVDYYKKRYNIIIRDLKQPLVMSRPTDKNIRGGNDQAIMIIPELARATGMTDAMRADFRTLRAMSEHTRLNPDRRIERLRMFNKRLKSCKQSVETLKSWNIELDSALVEIPARVLPPEKILFGNQKIFVCDARADWTNEFRTCSMFKNVHINRWYVITPSRNLRETQEFVQMCIRTASSMKMNICNPIYEEIPDDRNGTYSQAIDNAAANDPQIVMVVMRSPNEEKYSCIKKRTCVDRPVPSQVVTLKVIAPRQQKPTGLMSIATKVVIQMNAKLMGAPWQVVIPLHGLMTVGFDVCHSPKNKNKSYGAFVATMDQKESFRYFSTVNEHIKGQELSEQMSVNMACALRSYQEQHRSLPERILFFRDGVGDGQLYQVVNSEVNTLKDRLDEIYKSAGKQEGCRMTFIIVSKRINSRYFTGHRNPVPGTVVDDVITLPERYDFFLVSQAVRIGTVSPTSYNVISDNMGLNADKLQMLSYKMTHMYYNYSGTIRVPAVCHYAHKLAFLVAESINRAPSAGLQNQLYFL | binds | 
unmethylated Aubergine (natural protein, Drosophila, UniProt O76922 1-866, looked up, Aubergine (Aub), Piwi family protein, Drosophila; full-length; without sDMAs; source: Sf9 cells lacking dart5/vls bacmid, baculovirus; not shown: 3xFLAG, N-terminal, kept) MNLPPNPVIARGRGRGRKPNNVEANRGFAPSLGQKSDPSHSEGNQASGGNGGGGDAQVGPSIEKSSLSAVQMHKSEGDPRGSVRGRRLITDLVYSRPPGMTSKKGVVGTHITVQANYFKVLKRPNWTIYQYRVDFTPDVEATRLRRSFLYEHKGILGGYIFDGTNMFCINQFKAVQDSPYVLELVTKSRAGENIEIKIKAVGSVQSTDAEQFQVLNLILRRAMEGLDLKLVSRYYYDPQAKINLENFRMQLWPGYQTSIRQHENDILLCSEICHKVMRTETLYNILSDAIRDSDDYQSTFKRAVMGMVILTDYNNKTYRIDDVDFQSTPLCKFKTNDGEISYVDYYKKRYNIIIRDLKQPLVMSRPTDKNIRGGNDQAIMIIPELARATGMTDAMRADFRTLRAMSEHTRLNPDRRIERLRMFNKRLKSCKQSVETLKSWNIELDSALVEIPARVLPPEKILFGNQKIFVCDARADWTNEFRTCSMFKNVHINRWYVITPSRNLRETQEFVQMCIRTASSMKMNICNPIYEEIPDDRNGTYSQAIDNAAANDPQIVMVVMRSPNEEKYSCIKKRTCVDRPVPSQVVTLKVIAPRQQKPTGLMSIATKVVIQMNAKLMGAPWQVVIPLHGLMTVGFDVCHSPKNKNKSYGAFVATMDQKESFRYFSTVNEHIKGQELSEQMSVNMACALRSYQEQHRSLPERILFFRDGVGDGQLYQVVNSEVNTLKDRLDEIYKSAGKQEGCRMTFIIVSKRINSRYFTGHRNPVPGTVVDDVITLPERYDFFLVSQAVRIGTVSPTSYNVISDNMGLNADKLQMLSYKMTHMYYNYSGTIRVPAVCHYAHKLAFLVAESINRAPSAGLQNQLYFL | binds | 
Tud domain 1 (amino acids 1-217 of Tudor) (domain or fragment, Drosophila, UniProt P25823 1-217, looked up, Tudor (Tud) protein, Drosophila, full length 2515 amino acids; Tud domain 1, amino acids 1-217; pET SUMO vector; source: E. coli BL21 (DE3), partially purified (Ni-NTA); not shown: His, N-terminal, kept) MNGQARIALPSKVDLYITHVDHVGPYLKVYGHVNRDAASLISERIRNLLPTCFAIEPSWSVERQQALLIPGTFCIFKNINGPAPGDVEYRRIRVVSADLEGQSMRAEIDFVDFGYKRTVDSHDLMFPKQPKLLQNIPLHCFQYIVLGICSEWDQTDLAEVRRLVVNQIVKITVEPTQICDQKFASLRWKDFELNEFLVQQKQIGVSVDKQLMMDHCK |  | binds
Tud domain 3 (amino acids 592-772 of Tudor) (domain or fragment, Drosophila, UniProt P25823 592-772, looked up, Tudor (Tud) protein, Drosophila, full length 2515 amino acids; Tud domain 3, amino acids 592-772; pET SUMO vector; source: E. coli BL21 (DE3), partially purified (Ni-NTA); not shown: His, N-terminal, kept) QLENDDAVEIRFIDSPSNFYVQKVANIGKFEQLMDEMFSYYNANQRVPDQLILGAPCIVKCDQEWYRAEILRVDDSVIVRHVDFGYEQNVKRHLIGHIAEKHLEMPRQAIKCCLKGFENSELSEDKITDQFEMLAEESNIRRRTFSVRIFRIEPDGLNVVNLLAKNLNVMKKLYKLSMPFE |  | binds
Tud domain 4 (amino acids 1002-1192 of Tudor) (domain or fragment, Drosophila, UniProt P25823 1002-1192, looked up, Tudor (Tud) protein, Drosophila, full length 2515 amino acids; Tud domain 4, amino acids 1002-1192; pET SUMO vector; source: E. coli BL21 (DE3), partially purified (Ni-NTA); not shown: His, N-terminal, kept) SLDKPYALQEMKTPSKEAASLSWWLSPFQFYIVPKSVSAKYDNIMRDMREFYRQKQHQPLQLKVGSTVVVRQRKDNAILRATVTACNHMMRKYRVFCVDTGSLITVTSEDIWQLEQRFADPPCMAHRCSFHSVVTNYDPLYIVDRMETFVPVNAKVDCEFVSKEKSNQGSNTSSTCSYTVNIFVNGASLRD |  | binds
Tud domain 6 (amino acids 1299-1484 of Tudor) (domain or fragment, Drosophila, UniProt P25823 1299-1484, looked up, Tudor (Tud) protein, Drosophila, full length 2515 amino acids; Tud domain 6, amino acids 1299-1484; pET SUMO vector; source: E. coli BL21 (DE3), partially purified (Ni-NTA); not shown: His, N-terminal, kept) SFICPYPVVLSSFQALVVYTAKPYRVYVQPQAIVPSMQTLLDNMYEHYKAKGDSLKKFDVGQICAVRSSDGNWYRARISGKDSNAACFEVFYIDYGNTEEIKRDDIKALDAKFYEHASGFAVEINLPIGRPSNDTKLKARISEILEEKVVTIKSIEVRRSHLIADVILENNQSVIDLLKAEKLVPG |  | binds
Tud domain 9 (amino acids 1976-2160 of Tudor) (domain or fragment, Drosophila, UniProt P25823 1976-2160, looked up, Tudor (Tud) protein, Drosophila, full length 2515 amino acids; Tud domain 9, amino acids 1976-2160; pET SUMO vector; source: E. coli BL21 (DE3), partially purified (Ni-NTA); not shown: His, N-terminal, kept) SLAVTTKAIITHVENTSRIYLQFSEKDSLMDIICEKLNGSKLQPKTEKAAVDDMCVVQFADDLEFYRSRILEVLEDDQYKVILIDYGNTTVVDKLYELPQEFTLIKPVAEICSMEPSAIFEKNKALTLTTFDALLDSCKGVVAVEFVNKSASPPVVRLTTKDKRSLKIYEHLQKLVQAELKLIQK |  | binds
Tud domain 11 (amino acids 2335-2515 of Tudor) (domain or fragment, Drosophila, UniProt P25823 2335-2515, looked up, Tudor (Tud) protein, Drosophila, full length 2515 amino acids; Tud domain 11, amino acids 2335-2515; pET SUMO vector; source: E. coli BL21 (DE3), partially purified (Ni-NTA); not shown: His, N-terminal, kept) STVTGVQKPLEAELHNCVVVQFDGPMSFYVQMESDVPALEQMTDKLLDAEQDLPAFSDLKEGALCVAQFPEDEVFYRAQIRKVLDDGKCEVHFIDFGNNAVTQQFRQLPEELAKPARYSRHCELDASTISKCDAALLQSFIDTRFSETFQVEILATKGTGTHVVRLFYQSKNISEKLQECQ |  | binds
